This note sets out measurements from patent publication US20240352140A1 (Janssen / Centocor, published 2024).

The target of one assay is T1, recombinant soluble BCMA (Homo sapiens (Human), UniProt Q02223 1-54).
T1 sequence: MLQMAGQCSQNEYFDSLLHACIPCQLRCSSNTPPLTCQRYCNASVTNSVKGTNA
The assay is described as follows: cell-based or functional assay.

Assay [1] addresses T2, cynomolgus monkey BCMA (as used in SPR) (cynomolgus monkey).
T2 construct: also called cyno BCMA
As to the kind of experiment: SPR; column printed 'Binding Affinity to BCMA (nM)', Cyno.

B1: teclistamab (bispecific antibody, human IgG4 S228P, lambda, F234A L235A)
heavy 1: not shown
light 1: SYVLTQPPSVSVAPGQTARITCGGNNIGSKSVHWYQQPPGQAPVVVVYDDSDRPSGIPERFSGSNSGNTATLTISRVEAGDEAVYYCQVWDSSSDHVVFGGGTKLTVLGQPKAAPSVTLFPPSSEELQANKATLVCLISDFYPGAVTVAWKGDSSPVKAGVETTTPSKQSNNKYAASSYLSLTPEQWKSHRSYSCQVTHEGSTVEKTVAPTECS
heavy 2: EVQLVESGGGLVQPGGSLRLSCAASGFTFNTYAMNWVRQAPGKGLEWVARIRSKYNNYATYYAASVKGRFTISRDDSKNSLYLQMNSLKTEDTAVYYCARHGNFGNSYVSWFAYWGQGTLVTVSSASTKGPSVFPLAPCSRSTSESTAALGCLVKDYFPEPVTVSWNSGALTSGVHTFPAVLQSSGLYSLSSVVTVPSSSLGTKTYTCNVDHKPSNTKVDKRVESKYGPPCPPCPAPEAAGGPSVFLFPPKPKDTLMISRTPEVTCVVVDVSQEDPEVQFNWYVDGVEVHNAKTKPREEQFNSTYRVVSVLTVLHQDWLNGKEYKCKVSNKGLPSSIEKTISKAKGQPREPQVYTLPPSQEEMTKNQVSLTCLVKGFYPSDIAVEWESNGQPENNYKTTPPVLDSDGSFLLYSKLTVDKSRWQEGNVFSCSVMHEALHNHYTQKSLSLSLGK
light 2: QTVVTQEPSLTVSPGGTVTLTCRSSTGAVTTSNYANWVQQKPGQAPRGLIGGTNKRAPGTPARFSGSLLGGKAALTLSGVQPEDEAEYYCALWYSNLWVFGGGTKLTVLGQPKAAPSVTLFPPSSEELQANKATLVCLISDFYPGAVTVAWKADSSPVKAGVETTTPSKQSNNKYAASSYLSLTPEQWKSHRSYSCQVTHEGSTVEKTVAPTECS
notes: Humanized IgG4 proline, alanine, alanine (PAA)-based bispecific antibody with one BCMA arm (BCMB69) and one CD3 arm (CD3B219); also called JNJ-64007957; JNJ-957
The Kd is the constant that tells how readily two partners part at equilibrium. With B1, the “cytotoxicity assay with spiked recombinant sBCMA (167 nM), reduction in potency” value with recombinant soluble BCMA worked out at 2 fold. This molecule gave a Kd in assay [1] of 5.36 to 7.27 nM.
